The numbers were not newly measured in article PMC5423825, which cites them from elsewhere.

The target in the data set is CFluc398 (FGG-tagged C-terminal firefly luciferase fragment) CFluc398 (Photinus pyralis) [luciferase: P08659].

Take “NFluc437 (FGG-tagged N-terminal firefly luciferase fragment) NFluc437 (from UniProt P08659)”: the Kd was 112 µM.
